The target in one assay is T1, H3K9me3 peptide (Homo sapiens, UniProt P68431).
T1 construct: C-terminally biotinylated histone H3 peptides (aa 1–20)
Put plainly: SPR, immobilized H3K9me3 peptide. The format is binding. The following applies: for association kinetics: H3K9me3 surfaces of different density; for dissociation (release from matrix): more pronounced at higher H3K9me3 surface densities. Here is the method: SPR measurements were performed on a Biacore 2000 instrument (GE Healthcare, Buckinghamshire, UK) at 298 K in 10 mM triethanolamine (pH 7.5), 150 mM NaCl, 0.1 mM EDTA, 1 mM DTT, 0.005% (v/v) Tween-20. Biotinylated ligands were immobilized on streptavidin-coated sensor chips SA (GE Healthcare, Buckinghamshire, UK). Before immobilization, sensor chips were conditioned as described by the manufacturer. To obtain low surface densities (5–24 RU), 5 nM biotinylated H3 peptide was injected at a low rate of 10 μl min^−1 using varying contact times. High surface densities (>700 RU) were prepared by injecting […] peptide (10 μl min^−1) until the SA surface was saturated. Peptide-containing chips were regenerated by applying three short pulses of 0.05% (w/v) SDS followed by an injection of 1.5 M NaCl for baseline stabilization. For binding assays, hHP1β proteins were injected at […] (serial twofold dilutions) for 2 min (30 μl/min). Dissociation was recorded for up to 5 min. A streptavidin surface without ligands served as reference. In addition, blank runs were performed for double referencing. Data evaluation was performed by steady-state analysis assuming a Langmuir 1:1 binding model using BIAevaluation 4.1 and Prism 5.04 (GraphPad, CA, USA) software. Binding to the unmodified peptides was analysed with maximum binding (RUmax) set to the corresponding values obtained with the modified peptides.
Figure S8 Hiragami-Hamada et al.
20 30 one site-specific 20 30 one site-specific […]
time [s] concentration [ μM] time [s] concentration [ μM]
40 two site-specific 40 one site-specific […]
time [s] concentration [ μM]
Supplementary Figure 8: hHP1β binds nucleosomes as dimer.
(a) Dynamic light scattering (DLS) analysis of recombinant hHP1β WT (blue) and I161A (red).
(b) SPR response traces of injection of hHP1β WT into Biacore cells containing biotinylated H3K9me3-peptide immobilized on a sensory chip via covalently coated streptavidin. Immobilized peptide was at 24
RU. Injection series are from 0.024 to 50 µM protein concentration.
(c) Blot of signal over concentration of the titration in (b) to deduce an apparent Kd value. Best fitting was achieved by one site-specific binding model.
(d ) Same analysis as in (b) but with hHP1β I161A.
(e) Blot of signal over concentration of the titration in (d) to deduce an apparent Kd value. […]
(also on this page, place not known: dimer . hHP1 β H3K9me3 - se nsory ( b) site -specific ( b) hHP1 β ( d) site -specific hHP1 β modifi ed H3K9me3 -mononucleosomes H3 -tails -30 -50 -8 -4 200 -10 110 -50 -10 -30 [μM] [μM] -10 190 150 -10 110 200 -10 110 μl/min μl/min μl/min -50 150 response [RU] response [RU] response [RU] response [RU] response [RU] [μM] 10 50 response [RU]40 0 0 [μM] 10 30 50 response [RU] 40 0 0 40 [μM] 10 30 50 response [RU] 140 40 0 120 0 40 response [RU] response [RU] response [RU] Kd Kd μM Kd μM 0.8 0.6 0.4 0.2 0 1 1.0 0.8 0.6 0.4 0.2 0.0 mass fraction)
On the technique in general: SPR reads the build-up and loss of mass on a sensor chip optically.

For assay [1], the target named is CSD-CSD interaction of hHP1β monomers. Put plainly: ITC dilution, CSD-CSD dimerization. The following applies: ITC dilution experiments, not shown. The format is binding, human.
In a further assay the target is H3KC9me3 oligonucleosome. Nature of the assay: ITC, H3KC9me3 oligonucleosome. The format is binding, Xenopus laevis. The following applies: for Kd: read-out: Kd (apparent dissociation constant). The text has this:
Mononucleosomes were reconstituted on a 187 bp DNA fragment containing the ‘601' sequence flanked on each site by a linker of 20 bp[55]. Oligonucleosomes were reconstituted on a 12 × 200 bp × 601 template. Plasmids carrying the respective inserts were purified using a Giga kit (Qiagen, Hilden, Germany). Templates for reconstitution were released from plasmids by restriction digest with BsoBI for mononucleosomes and a mix of DdeI, BfuCI, HaeII and EcoRI for oligonucleosomes. To separate vector backbone from DNA used for chromatin assembly stepwise precipitation with polyethylene glycol (PEG) 6000/0.5 M NaCl was carried out (final PEG concentration 2–9% and 20% (w/v)). DNA pellets were washed with 70% (v/v) ethanol and dissolved in water. Double stranded, short, biotinylated DNA linkers were ligated to the DNA template before chromatin reconstitution.
ITC measurements were performed on a iTC200 calorimeter (Microcal, Malvern, UK) at 25°C in binding buffer (10 mM triethanolamine (pH 7.5), 20 or 150 mM NaCl, 0.1 mM EDTA). Reaction heats were recorded by sequences of 37 injections of 1.8 mM hHP1β, spaced at 120 s intervals, into 250 μl of 60 μM H3 peptides, nucleosomes or oligonucleosomal arrays under constant stirring at 1,000 r.p.m. (injection #1–10: 0.5 μl each; injection #11–32: 1 μl each; injection #33–37: 2 μl each). Heats of dilution, obtained by the titration of hHP1β into buffer, were substracted from raw data before analysis. Raw data were integrated, normalized and the apparent heat change (Δq) of the reaction was plotted against the molecular ratio using the Origin software. For the determination of apparent enthalpy changes (ΔHapp), the molar association constant (KA), and the stoichiometry (n) of the interaction, non-linear least-square fitting of the Δq values was performed by the Origin software using a binding model of one set of identical binding sites.
Figure S4 Hiragami-Hamada et al. […]
Supplementary Figure 4: Quantitative analysis of interaction of hHP1β with H3K9me3-peptides and
(a) ITC measurements of H3K9me3-peptide/hHP1β WT interaction at 20 mM NaCl (left) and 150 mM
NaCl (right). Upper panels, raw data of heat release upon stepwise injection of recombinant protein into
solution of peptide; lower panels, plots of integrated heats of protein injections vs. molar ratio of hHP1β
WT per peptide calculated by MicroCal software. Injections #1-10: 0.5 µl; injections #11-32: 1 µ l;
(b) ITC measurements as in (a) but with H3K C9me3- oligonucleosomal arrays. […]

[2] abbreviates: SPR titration 0.024 to 50 µM, peptide at 24 RU, one site-specific binding model, read-out: apparent Kd (Supplementary Fig. 8c,e).
The mark [3] stands for this setting: SPR, 150 mM NaCl, pH 7.5, 298 K, steady-state, WT value based on fitting to a one site-specific binding model, read-out: Kd (apparent dissociation constant).

Like-named read-outs stand apart in the source and are kept apart here.

The values that follow come from publication PMC4838890, “Dynamic and flexible H3K9me3 bridging via HP1β dimerization establishes a plastic state of condensed chromatin” (Nature Communications, 2016).

Consider “hHP1β WT: recombinant human heterochromatin protein 1β (GenBank NM_001127228), 185 aa”, for which, in the assay with H3K9me3 peptide (SPR titration), the “stronger binding to the H3K9me3 matrix compared with the I161A protein” value came to 10 fold. Further, the Kd with H3K9me3 peptide (setting [2]) amounted to 0.73 µM; with H3K9me3 peptide (setting [3]) it was 0.7 ± 0.1 µM; on H3KC9me3 oligonucleosome (150 mM NaCl, pH 7.5, 25°C), 11 ± 2 µM. Moreover, the binding mode result in the assay with H3K9me3 peptide (SPR, H3K9me3 peptide and mononucleosome surfaces) is reported as “fully consistent with a bivalent interaction mode”. The association kinetics result in the assay with H3K9me3 peptide (SPR) is reported as “very fast association kinetics”. The “dissociation (release from matrix)” value in the assay with H3K9me3 peptide (SPR) is “released more slowly”. Further, in assay [1], the CSD-CSD dimerization strength entry was “nanomolar regime”. For the same substance, at H3KC9me3 oligonucleosome (20 mM NaCl, pH 7.5, 25°C, NB, not binding), the “Kd (apparent dissociation constant)” value is recorded as “could not detect any binding”.
Turning to “hHP1β I161A: CSD point mutant of hHP1β incapable of dimerization”, the Kd is 7.5 µM in the assay with H3K9me3 peptide (setting [2]); 7 ± 0.4 µM with H3K9me3 peptide (setting [3]); 132 ± 24 µM on H3KC9me3 oligonucleosome (150 mM NaCl, pH 7.5, 25°C). Also, the association kinetics entry with H3K9me3 peptide (SPR) is given as “very fast association kinetics”. In addition, in the assay with H3K9me3 peptide (SPR), the “dissociation (release from matrix)” value is on record as “dissociated rapidly from the H3K9me3 ligand”. In the assay on H3KC9me3 oligonucleosome (150 mM NaCl), the “reduced interaction with H3KC9me3 oligonucleosomes compared with hHP1β WT” value came out at 12 fold.
